The source of these data is PMC6289849 (The Journal of steroid biochemistry and molecular biology, 2018).

Read-outs that look alike come from different tables or passages of the source.

Data set [1] concerns the target T1, human STS (Homo sapiens, UniProt P08842).
T1 sequence (P08842 22-583): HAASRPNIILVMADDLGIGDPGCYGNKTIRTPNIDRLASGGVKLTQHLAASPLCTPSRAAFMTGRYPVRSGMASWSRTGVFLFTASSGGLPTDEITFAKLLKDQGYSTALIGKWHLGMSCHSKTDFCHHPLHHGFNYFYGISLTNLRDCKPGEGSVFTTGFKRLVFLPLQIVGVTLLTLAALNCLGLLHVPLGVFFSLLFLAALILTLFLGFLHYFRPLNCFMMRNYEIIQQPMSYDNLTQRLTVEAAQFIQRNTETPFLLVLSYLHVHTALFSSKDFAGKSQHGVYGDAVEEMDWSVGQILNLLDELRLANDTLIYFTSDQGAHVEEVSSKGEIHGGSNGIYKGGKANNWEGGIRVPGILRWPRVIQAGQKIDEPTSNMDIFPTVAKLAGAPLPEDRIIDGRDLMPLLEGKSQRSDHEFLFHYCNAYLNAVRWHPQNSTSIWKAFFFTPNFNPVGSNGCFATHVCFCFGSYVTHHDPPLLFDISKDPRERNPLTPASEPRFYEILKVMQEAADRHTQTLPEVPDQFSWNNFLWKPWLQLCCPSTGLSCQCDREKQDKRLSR
The settings on record: 5 μM E1-sulfate, 37°C, 15 min, pH 7.0, 10 mM Ca2+; irreversible inhibitor.

Data set [2] deals with zebrafish Sts (zfSts, zfSts_tv1) (Danio rerio, UniProt A0ACD6B647). Briefly: HPLC of released estrone. The class given is biochemical. The note with it: 5 μM E1-sulfate, 28°C, 15 min, pH 7.0, 10 mM Ca2+; irreversible inhibitor.
Sequence of zebrafish Sts (zfSts, zfSts_tv1) (Danio rerio, UniProt A0ACD6B647) (A0ACD6B647 21-584): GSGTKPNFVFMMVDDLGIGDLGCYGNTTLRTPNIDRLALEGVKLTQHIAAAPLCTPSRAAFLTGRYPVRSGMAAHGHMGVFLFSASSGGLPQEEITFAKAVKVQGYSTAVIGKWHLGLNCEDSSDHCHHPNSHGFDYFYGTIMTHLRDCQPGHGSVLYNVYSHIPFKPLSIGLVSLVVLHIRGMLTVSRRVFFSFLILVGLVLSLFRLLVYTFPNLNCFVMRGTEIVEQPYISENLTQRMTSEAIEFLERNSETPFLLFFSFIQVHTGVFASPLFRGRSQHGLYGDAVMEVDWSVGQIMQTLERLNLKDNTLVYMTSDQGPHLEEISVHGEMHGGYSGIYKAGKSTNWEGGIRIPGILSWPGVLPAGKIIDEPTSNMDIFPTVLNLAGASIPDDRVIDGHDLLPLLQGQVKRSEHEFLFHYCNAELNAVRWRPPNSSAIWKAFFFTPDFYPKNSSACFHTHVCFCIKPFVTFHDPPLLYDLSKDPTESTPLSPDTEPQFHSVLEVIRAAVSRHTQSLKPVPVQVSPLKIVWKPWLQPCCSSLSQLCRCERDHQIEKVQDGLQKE
Data set [3] has as its target T1, human STS. Briefly: HPLC of released estrone. The class given is biochemical. The note with it: 5 μM E1-sulfate, 37°C, 15 min, pH 7.0, 10 mM Ca2+; irreversible inhibitor.
Data set [4] concerns the target zebrafish Sts (zfSts, zfSts_tv1) (Danio rerio, UniProt A0ACD6B647, I88V/L437F/N388K). As to the kind of experiment: HPLC of released estrone. The class given is biochemical. The settings on record: read-out: % inhibition at 0.1 μM.
In data set [5] the test system is [H][C@@]12CC=C3C[C@@H](OS(=O)(=O)O)CC[C@]3(C)[C@@]1([H])CC[C@]1(C)C(=O)CC[C@@]21[H]. As to the kind of experiment: cells, lysate or membranes. The note with it: 28°C, pH 7.0 Hepes, 10 mM Ca2+, 1 mM DTT, labelled compound.
For data set [6], the system named is C[C@]12CC[C@@H]3c4ccc(OS(=O)(=O)O)cc4CC[C@H]3[C@@H]1CCC2=O. Briefly: cells, lysate or membranes. The note with it: 28°C, pH 7.0 Hepes, 10 mM Ca2+, 1 mM DTT, labelled compound.
In data set [7] the test system is CC(=O)[C@H]1CC[C@H]2[C@@H]3CC=C4C[C@@H](OS(=O)(=O)O)CC[C@]4(C)[C@H]3CC[C@]12C. As to the kind of experiment: cells, lysate or membranes. The settings on record: 28°C, pH 7.0 Hepes, 10 mM Ca2+, 1 mM DTT, labelled compound.
Data set [8] concerns [H][C@@]12CCc3cc(OS(=O)(=O)O)ccc3[C@@]1([H])CC[C@]1(C)[C@@H](O)CC[C@@]21[H]. As to the kind of experiment: cells, lysate or membranes. The note with it: 28°C, pH 7.0 Hepes, 10 mM Ca2+, 1 mM DTT, labelled compound.
Data set [9] concerns CC(C)CCC[C@@H](C)[C@H]1CC[C@H]2[C@@H]3CC=C4C[C@@H](OS(=O)(=O)O)CC[C@]4(C)[C@H]3CC[C@]12C. Briefly: cells, lysate or membranes. The note with it: 28°C, pH 7.0 Hepes, 10 mM Ca2+, 1 mM DTT, labelled compound.

Sequence of zebrafish Sts (zfSts, zfSts_tv1) (Danio rerio, UniProt A0ACD6B647, I88V/L437F/N388K) (A0ACD6B647 21-584, stated change not applied): as the sequence (A0ACD6B647 21-584) above

For orientation: % inhibition means how much of the control response was suppressed. In the case of `C[C@]12CC[C@@H]3c4ccc(OS(N)(=O)=O)cc4CC[C@H]3[C@@H]1CCC2=O` [EMATE], the “% inhibition at 0.1 μM” value at human STS [1] was “EMATE also inhibited the activity zebrafish Sts_tv1 and human STS”; in data set [2], “EMATE also inhibited the activity zebrafish Sts_tv1 and human STS”.
What is called inhibition is how much of the control response was suppressed. Regarding `NS(=O)(=O)Oc1ccc2c3c(c(=O)oc2c1)CCCCC3` [STX64], the “% inhibition at 0.1 μM” value at human STS [3] is 93%. The inhibition at 0.1 µM in data set [4] was found to be 88.3%.
A word on the Km: it is the substrate concentration at which the rate is half of its maximum. A word on the Vmax: it is the top rate of the reaction or transport when substrate is in excess. For “zebrafish Sts (zfSts, zfSts_tv1) (Danio rerio; I88V/L437F/N388K)”, the Km was determined as 19.38 ± 3.07 µM in [5]; 4.32 ± 0.49 µM in data set [6]; 0.18 ± 0.01 µM in data set [7]; 2.07 ± 0.29 µM in data set [8]; 0.62 ± 0.06 µM in [9]. Also, the Vmax in data set [5] came out at 0.000374 µmol/min/mg; in data set [6], 0.00126 µmol/min/mg; in data set [7], 0.000104 µmol/min/mg; in data set [8] it was 0.00107 µmol/min/mg; in data set [9], 8.12e-05 µmol/min/mg.
